# Measurements published in US20110262471A1 (ONCOTHERAPY SCIENCE, published 2011).
# Target: T1, human beta 2m-HLA-A2.1 (alpha 1, alpha 2)-H-2 Db (alpha 3 transmembrane cytoplasmic; HHD) monochain (human; mouse, UniProt P61769 21-119; P01899 207-362)
# T1 chain (looked up): not shown
# Test: cell-based or functional assay
row,Binder,"IFN-gamma ELISPOT of CD4- spleen cells of immunized HLA-A2.1 (HHD) Tgm, in response to BM-DCs pulsed with the peptide"
1,LLSDDDVVV [RAB6KIFL-A2-9-12 peptide],149 spot counts/well
2,CIAEQYHTV [RAB6KIFL-A2-9-809 peptide],117 spot counts/well
3,AQPDTAPLPV [RAB6KIFL-A2-10-284 peptide],141 spot counts/well
